According to article PMC5758567:

Target: Rod photoreceptor cGMP phosphodiesterase 6 (PDE6) (bovine (endogenous in rod outer segments)) (UniProt P11541)

Prenyl-binding protein (PrBP/δ), sequence (Q95142 whole entry, stated change not applied): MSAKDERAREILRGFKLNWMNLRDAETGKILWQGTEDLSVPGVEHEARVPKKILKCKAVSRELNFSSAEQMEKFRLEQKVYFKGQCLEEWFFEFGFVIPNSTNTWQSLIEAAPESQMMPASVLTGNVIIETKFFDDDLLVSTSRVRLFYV

Prenyl-binding protein (PrBP/δ) (from UniProt Q95142 1-150) (natural protein)
Gα*-induced PDE6 activity (50 nM PDE6, 10 µM disc membranes, 1 µM Gα*) against PrBP/δ concentration; fit with two identical PrBP/δ binding sites on soluble PDE6: 0.07 µM
